Results published in patent US7799326B2, “Methods and compositions for cathespin k complex-mediated disorders” (Mount Sinai School of Medicine, priority 2001, dated 2010).
“Also recorded” adds a separate entry of the source.

How the values were obtained:
gelatin = assay: Gelatin hydrolysis by cathepsin K mutant proteins; assay type: biochemical
[1] = Mobility shift assay of complex formation of proteases with CSA; assay type: binding
Experimental: The gel was run at about 25° C. 55 V, 250 mA for 30 min, then dried and developed the radio signal on a film.

type I collagen = assay: Type I collagen hydrolysis by cathepsin K mutant proteins; assay type: biochemical, bovine; settings: 800 nM protein, 0.4 mg/ml collagen, 0.15% CSA, 8 h at 28 C, pH 5.5
Experimental: (§1) The mutant proteins were generated to characterize cluster 1:K77A, R79A (mutant 1), K103, K106A, R108A, R111A, (mutant 2), K77A, R79A, K103, K106A, R108A,R111A (mutant 3), K77A, R79A, K103, K106A, R108A,R111A, K122A, R127A (mutant 4). Mutant proteins were expressed in Pichia pastoris and the activity of the protein was determined towards two synthetic peptide substrates, gelatin and type I native collagen. […] The cleavage products were separated by SDS polyacrylamide electrophoresis using 4-20% Tris Glycine gels.

[2] = Activity of cathepsin K mutant proteins towards synthetic peptide substrates; assay type: biochemical; settings: Example 17 mutants
Experimental: as §1

B1: Y212C: pycnodysostosis-causing cathepsin K mutant (protein, UniProt P43235 115-329, looked up, variant Y212C)
Cathepsin K: APDSVDYRKKGYVTPVKNQGQCGSCWAFSSVGALEGQLKKKTGKLLNLSPQNLVDCVSENDGCGGGYMTNAFQYVQKNRGIDSEDAYPYVGQEESCMCNPTGKAAKCRGYREIPEGNEKALKRAVARVGPVSVAIDASLTSFQFYSKGVYYDESCNSDNLNHAVLAVGYGIQKGNKHWIIKNSWGENWGNKGYILMARNKNNACGIANLASFPKM
With B1 the “gelatin hydrolysis by the protease” value (gelatin; 1 nM Y212C, 0.15% CSA, 37 C for 8 h) was “exhibited gelatinase activity” and the “complex formation with CSA” value ([1]; 0.2 μg/ml and 1000 μg/ml CSA) was “unable to form a complex with CSA”.

B2: mutant 1: cathepsin K mutant K77A, R79A (protein, UniProt P43235 115-329, looked up, variant K77A R79A)
Cathepsin K: APDSVDYRKKGYVTPVKNQGQCGSCWAFSSVGALEGQLKKKTGKLLNLSPQNLVDCVSENDGCGGGYMTNAFQYVQANAGIDSEDAYPYVGQEESCMYNPTGKAAKCRGYREIPEGNEKALKRAVARVGPVSVAIDASLTSFQFYSKGVYYDESCNSDNLNHAVLAVGYGIQKGNKHWIIKNSWGENWGNKGYILMARNKNNACGIANLASFPKM
In the case of B2, the “degradation of type I collagen by the protease” value (shortened to “degradation of type I collagen”) (type I collagen) is reported as “complete degradation of type I collagen” and the “degradation of type I collagen” value (type I collagen; listed as Mutant 1) is reported as “did not reveal an inhibition”.

B3: mutant 5: cathepsin K mutant K9E (protein, UniProt P43235 115-329, looked up, variant K9E)
Cathepsin K: APDSVDYREKGYVTPVKNQGQCGSCWAFSSVGALEGQLKKKTGKLLNLSPQNLVDCVSENDGCGGGYMTNAFQYVQKNRGIDSEDAYPYVGQEESCMYNPTGKAAKCRGYREIPEGNEKALKRAVARVGPVSVAIDASLTSFQFYSKGVYYDESCNSDNLNHAVLAVGYGIQKGNKHWIIKNSWGENWGNKGYILMARNKNNACGIANLASFPKM
With B3 the “degradation of type I collagen” value (type I collagen) was “strongly inhibited; also recorded: significantly reduced”, the “activity towards gelatin compared with wild type” value (gelatin; Example 17 mutants) was “fully active” and the “activity towards synthetic peptide substrates compared with wild type” value [2] was “fully active”. For the same molecule, the “complex formation with CSA” value ([1]; Example 17 mutants, gel-mobility assay) was “still revealed complex formation”.

B4: Cat S: human cathepsin S, closely related cysteine protease (protein, UniProt P25774 115-331, looked up)
Cathepsin S: LPDSVDWREKGCVTEVKYQGSCGACWAFSAVGALEAQLKLKTGKLVSLSAQNLVDCSTEKYGNKGCNGGFMTTAFQYIIDNKGIDSDASYPYKAMDQKCQYDSKYRAATCSKYTELPYGREDVLKEAVANKGPVSVGVDARHPSFFLYRSGVYYEPSCTQNVNHGVLVVGYGDLNGKEYWLVKNSWGHNFGEEGYIRMARNKGNHCGIASFPSYPEI
In the case of B4, the “complex formation with CSA” value ([1]; 50 ng [125I]DCG-04 labeled protease, 0.1% CSA) is reported as “Only cathepsin K formed a stable complex”.
